Results published in the NTF2 design screens of Basanta et al. (2020).

Assay: protease stability score; higher = more stable; yeast display proteolysis, trypsin and chymotrypsin;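 further: relative to predicted unfolded state with 0 unfolded-like and 1 meaning tenfold more protease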

Sequence	protease stability score
SELIKVSRHAMEILVHSWLTGDWERSEELVDPHARTQYGDKHVHGMELFEEIFKEELDRVKGMRLEIIIRRVDLQGNKAEVDGEFRNHVNGVDVRRRMHVELVVVNGVVESTSIRIQ	0.453
SELIRASETMMKAIADSEETGDWRLLRELFDPHVRIEIGDKKYHGWKYLKHFMEELRIESRTELEHVDTFDGKVRVEGTLTTDLRVNGQEHTINLDIRSIIVKIDGRWIIHKVKIH	1.14
SELKEEVDRWAKRFIHAVETGDEDTILKFMDPHVKSSVGEKVHHGREFLIIIWRELRIRHFTVHHIRVDEDHLIIHMEWQGHVNGKEIRLEVDLFIRKVDGVWIMKHIEIR	2.03
SELKEILRKAIELLLRLWVTGDEEELLELFDPNVKLVIGDKIFIGREEFEKVSRHARVKRSDINDFRVQGDKITYDTRMDGHVNGKDIDTTVDIIAVKIDGRWFNHSIIVH	-0.093
SELKESATDIMRIYIEAWLTGDFEEITRLADPRMRVINDFNGRTQVNHGRELFRETLKHWRIKHVHIDDMRSFEGRSESHGTVHGQFNGVEDEVRFEVRMVVVDGVLHSMTIIFK	1.18
SELKNWARIIAERVTDELNTGNEHRLRELFDPNVKIRIDGRDFHGMDTLRRFFEELRITHTHWEHKDMHLIGDKALLHGTLKINILQGDKTHETTFDVRIFVIKVNGRWSYEHMEID	1.22
SELKQAIDDLIRRFEHIYHTGNEEIWERLADPNTRIDIDGQEIIGREQATRERREEMKKLGVERVEVELRLRNVEVVGNKLHLDGELILRYGDKTVVIDSKINLQKINGRWVIREEIYH	1.04
SELNEISEEAVEWFRKVLLTGNEDLLLNLADPNVRYEVGDKRRVGRESMIEQIQHFLHEMGINHIHSVHIRDVRIQGDYIEVDSELETTVNGQKMYIHMFLRARKIDGKWILDRIYVH	1.02
SELNEKLKHLIELHWRVLETGDEHMMTRLLDPHARLEYGDKELHGREEVTHWHYEILEKVKNLQIHLSDYRIVNGQIHLHVVENVNGVTTRRFINIEKIDGRWHDREIRIE	0.757
SELNHSVRRAIEIFERVSKTGDEREIRDLADPNVKLDFDGREHHGWEWFVRFMKEIRIKDHRIRDVELIGEFVIIHGELEMEINGVDIRTEVEFYVFKINGKWYLKRLIIR	1.92
SELSEDLDMYIKIFLRHTETGDEESVRDFADPHAKLEIGDKTFHGRETFLDWFLDLRDRIPNITVRIHEVRIIGDKIHIDLEIIIGEKRTRIHLKIFKVDGVWVLKSLRIN	1.58
SEMDEASKLALKLLEHMVRTGDEHLSEHLVDPHARLFQGDKVEWGRERMTRQLHEWRVRDFKLKRVHVYNGRIEVDGVLNGTVDGVDENRDVRLIITKIDGQWLIKSVIIE	0.474
SEMDENIHEALKEEMHAWVTGDFDKIEHLLDPNTRVEQGEFIYHGRFFVEFVRRRVDHVFWHHVEIRHIENVDGRMIIDGIVDFEETAENHRHRHTIRTIIYLEKIDGKWYIRSLEVK	0.874
SEMEDIAEEWAELILHLWHTGDEDKLWKLADPNTREHVNGRNLHGREEIVRIIVHEMVEMRIKFRPHDVRVQGDKVIIDGIKEIHIDGKEIRIRIEIVIVVINGRYHSSELTVH	1.04
SEMEEESHKVVEYATHVFATGDEHLMRKNFDPDVKLDYNGKHFHGWEEFVKLMQTLREKYGVKHVKRVEIEDIRIIGNKVEVDTRVVQNVDGVPFELEITLILIKIDGKWRNHSSRIR	0.037
SEMEEEVRRAMKSFIKDLETGNEKSNHENVDPHARLLINGQEFHGMEHVSRWINKAGIDHFEIDEFRIIGNKIRIDGTITFNGQQHKVRIDVVKVDGRWLVKSLEII	1.29
SEMEEHAERVWRIMLTLLLTGDEEKFNHLADPNTRLIIIIGDKELHFHGRHEISNYLHRYLREIRIDHFHEHSITVQGNWVHTDGIMLGRFDGKRHEIRVHIHLIVIDGRIKEIYLENR	1.64
SEMEETAKTVYKRWFDMLHTGDEELLTRFMDPHVRVQQGDKEIVGWELVVTHNRHLRYEDSHLKDIETQGDKVIIRGELVLTIGDKRFTIDVEILAQKVDGRWILKSVRFS	0.035
SEMEETLKKAFHNLLEHIKTGDEQLLKEFLDPNTKVEVDGVELIGMEKFIELMREIEKRVDVIRSLELEHWEVVGNKIRMEVRLNIEINGKDTFTRTHLIALKVNGRWILHSVRIG	1.75
SEMEEVAVREWEILVKALRTGDERIISELMDPHARVDYNGRQLHGREEVKKFLEEIRIVTHHTEIKDHEYQGNKLIMHGHVDVENEYGDKTERIDTHIHIILRKVNGRWFITEIDIR	2.53
